Data taken from the DeepSol protein solubility set.

Experiment: soluble on expression in E. coli; label from the status in PepcDB or PDB records

Sequence	soluble on expression in E. coli
MGSDKIHHHHHHMKNLFLYCRAGYEKDCAAEIQQRAAELGIGGFVKANRDDAYVVFQGFSPDDGDRLAKELPLDSLIFARQMFACGDLLDDFSPEDRVTPIAESLTEVERAGELRVETPDTNEAKELSAFCRKFTVPLRQALKKRGVLLDKESSRRPIVHVCFVAPNKAFTGYSLSNNSSPHFMGIPRLKFPADAPSRSTLKLDEAFIHFIPREEHETRLRSGLNAVDLGACPGGWTYQLVRRGMMVHAIDNGPMNHDLMETGQVTHHRADGFKFEPARRNIYWLVCDMVEKPARVAELMEYWAIQGWFKEAIFNLKLPMKSRYKEVSQILANMHAILKENGIHEFHLACKHLYHDRDEVTVHLWLRPSSPWI	not soluble
MSLIDARLATEIVVRTVEVMPFDVNVMDAHGVILASSDAARVGEIHAGAQLALARARAVEIDDAMAANLSGARPGINLPLSVRGKVCGVIGVTGEPDAVRGFGELLRVTAELILEREQLTVELRRNARHREEFVLQLLRRTAAAAELEAWADRLGIDMRLAHAAIVCRLSGVDTEPEAGVGQIEAMQSQLAQEWPQLLSAKTSYRELVMFDAVDARAGRDGVLATHAGKRLAALEDTLRKVATQPFSLALGIALDGIDGFERSYQCALATLRVGAARTPQRAAYSYYDFVLPVLLSALSQGWQARQLRLPLTRLLARERRSGALLDTLKAWYAHDGHPSATAQALGIHRNTLDYRLQQIRDATGLDLGAIDDRLWLYIALQTMAGEGHHHHHH	soluble
MIPLLAFAAWSGTGKTTLLKKLIPALCARGIRPGLIKHTHHDMDVDKPGKDSYELRKAGAAQTIVASQQRWALMTETPDEEELDLQFLASRMDTSKLDLILVEGFKHEEIAKIVLFRDGAGHRPEELVIDRHVIAVASDVPLNLDVALLDINDVEGLADFVVEWMQKQNG	soluble
GGWGFLASFAAGIGLRHAEVATLGRASAPAEAQAAAADVREAGQASGAIEYGADRSEHPKVAAGAVMLDVLSFGNLLERSLEVLLVTLLGAMLYQHWDWRA	not soluble
SLLGQKSQRYKAEEGLQAQGEAPGLMDVQIPTAEEQKAASSSSTLIMGTLEEVTDSGSPSPPQSPEGASSSLTVTDSTLWSQSDEGSSSNEEEGPSTSPDPAHLESLFREALDEKVAELVRFLLRKYQIKEPVTKAEMLESVIKNYKNHFPDIFSKASECMQVIFGIDVKEVDPAGHSYILVTCLGLSYDGLLGDDQSTPKTGLLIIVLGMILMEGSRAPEEAIWEALSVMGLYDGREHSVYWKLRKLLTQEWVQENYLEYRQAPGSDPVRYEFLWGPRALAETSYVKVLEHVVRVNARVRISYPSLHEEALGEEKGV	soluble
MGSDKIHHHHHHMEKTVQLEHMNTRVFVEGAYDTALIPLGSCESHGDHLPFAMDALTAHKLALGVAERMEKVFVLPPTFFGFSQHYWHKPMSISLSQDTNIRVIADILDSLAHWKIRNVLIINGHDGNISAIDVAARAARLRHPDMKIGSLDAWWVTAGNLLPKDTFEVWNGLGHGGEGETSIGLACFPELVDMAHARGMIPEVDENVKELWDFSELTDYGATGAPEKATREKGQAMYDVLVDYLVAYLTKRRDTNWAYNPK	not soluble
SLKQPVFKKVLQVGIVVHDLEKAVRTYADDFGIGPWQFYNLDKSNMHDMKMRGEKAEFSMKVAFTDLGGVQLELIEPLDESIYSDFLREHGEGIHHIACGVRNFEETMASMQKKDIKVLLEGTTSAGMGYVYLDTTDALSCITEIYRIPENLQYIPPDKTYEG	soluble
MHEFSIVQSLLTLIEDYARENNAKSVTKVVVSIGVLSGVEPHLLEMAFNTFKEGTVAEKAELIMEIEKLKIKCMDCGKESEKEELNMLCPGCGSLNTQIISGQDMFLKSLELEVD	soluble
MNNEPLRPDPDRLLEQTAAPHRGKLKVFFGACAGVGKTWAMLAEAQRLRAQGLDIVVGVVETHGRKDTAAMLEGLAVLPLKRQAYRGRHISEFDLDAALARRPALILMDELAHSNAPGSRHPKRWQDIEELLEAGIDVFTTVNVQHLESLNDVVSGVTGIQVRETVPDPFFDAADDVVLVDLPPDDLRQRLKEGKVYIAGQAERAIEHFFRKGNLIALRELALRRTADRVDEQMRAWRGHPGEEKVWHTRDAILLCIGHNTGSEKLVRAAARLASRLGSVWHAVYVETPALHRLPEKKRRAILSALRLAQELGAETATLSDPAEEKAVVRYAREHNLGKIILGRPASRRWWRRETFADRLARIAPDLDQVLVALDEPPAR	soluble
MQLIPFEIPGILVGRFEKCSDNKREDERQRISLLLRRVFPHDTPQIGHLPSGKPILDSAHNISISHTGSYGAIYVTPSSLIPGIDIEMLSDRALRVAPRFMNEREYEWLMSADEARRRLLATIIWSAKETAYKIFNPSDASLKRFDVALPFELPSENTLFSFELIYSDSCTGDIHIPVQALCTGEFILTCACHCSHSR	not soluble
SLQIKKLFIALGIVLPLHMQGQNFLIKDAPEVIESYVNQFNREDNELYKQDIPNCGASDFLRKNIPFFECPDKELEKTYYFRWWTYRKHIKKTPDGFVITEFLPDVPWSGKYNTISCAANHHFYEGRWLRNAEILSDYASFWFSGSGNPRLYSFGAADAIYNYYLIHNDKMLLADLYPKLKDNFAKWEEEKRDSTGMFWQVDDRDGMEMSVSGHLSEGGRGYRPTINSYMYGEAVALAKIASIVDRDMEARTYQKKADKLKGIINRRLWDKQADFYKVIPLNGKMEFSYARELLGYIPWFYNIPPDNYSIAWKQLFDSKGFEAAYGPTTVEQRCPDFKISYEGHECQWNGPSWPYLTSMTLAAMANYFNSYDSPIITKKDYLSLLNIYSNSHRILSVNNDTICWIDENINPYTGDWISRTRLKSWKNGTWDDSKGGVERGKDYNHSSFCNLIISGLMGVRPQEDGSIIINPLVPDGCWDYFCLDNVYCQGKTITIIFDKKGKKYGRGKGFIVYVDDKCLSHTTRVQKVVIR	not soluble
GISYSVEADPDTTAKAMLRERQMSFKHSKAIAREIKGKTAGEAVDYLEAVIEGDQPVPFKQHNSGVGHKSKVDGWDAGRYPEKASKAFLDLLENAVGNADHQGFDGEAMTIKHVAAHKVGEQQGRKPRAMGRASAWNSPQVDVELILEEPEVED	soluble
MGSDKIHHHHHHMFGPGGTQIPNPLRLKRPEGELVWAHATTQERLLGLCDVGCRLKMMRPDLSVMLTWEEDMRPAKLPEGCDIPLGPLTVEQPNDIRNFLDNWSPDVCVWAGGRLRRLLMRHMREREMPALLCDIDADELPSRASRWLPDQRHRLLNGFAAILVPGTEVSERLKRAGVAPERIHPAGRLFQSSTPPSCNDDELAQMQKQFASRPLWLAAHVSLSELPAVLKAHRGALRLLHRLLLVLTVDTFEDLDAARSLLRKEGLSFADWDMGEDPEDHTQVAIGLTENLGLWYRLCPISFLGNSLIRGAQGTNPLDAAALGSAILHGPGVVAHAQAYQRLAALDAAERIHGEEELADAVFRLSSPDRAAEMALAGWQVVTEGAVMTDTLLERIQDLLDQSELSHAPA	not soluble
MSLIHIAIAEDDFRVAQIHERLIKQLDGFKIIGKAANAKETLALLKEHKADLLLLDIYMPDELGTALIPDIRSRFPEVDIMIITAATETRHLQEALRAGIAHYLIKPVTADKFRQVLLQYKEKRKLLMSQPEVSQSMIDHIFGNGVKTALPAEDLPTGINSITLRKIKEALQTASEGLTAEELGEKMGASRTTARRYAEYLVSKEEARAELEYGIIGRPERKYYLAADEGHHHHHH	soluble
MSKTTLVERCYKYIMSNEKNWSPYTVINRKSWVKNYIEPFFKDTKLIDINPVLIQTFINTTFNNCTFSSSKIRYRFISSVLKEAYRLREINENPCDFVKLPLEHHHHHH	soluble
MAHHHHHHMWNLNRLYRQNELSMHGVRNNHDIIVVRQVNISDKNNPDNYLHNQNNTNTSIKQNPQSVILNEKELLNLVQNFNHINRKHKGFCETSIFKNSTFSNTNNEHNGEDSFNTYLIIDKWKTKREFEKSKKEFEKLFAHKNHLYDKKMEDIYLNYEMYNNNYETVSAQNIFQKLYYFIFD	not soluble
MGSDKIHHHHHHMSKNDLADLLRVGPETTMGKFMRQYWLPAVLSHEVKADGDPVRLMLLGEKLIAFRDSSGRVGVLDHRCPHRCASLFVGRNEENGIRCVYHGWKFDVDGNCVDMPSVPARLDFKEKVHARAYKAVERNGLIWVYMGENQNNPPPLPAIEANMIPGSKIWCLQRQCNWLQALEGDIDTSHVGFLHVGALQPEDLPEGSPLRPTVLNRAPEYRVQNAEWGATYGAYRLAEDGRMSWRAAQFMFPFWTMTPNILFSTRAIARAWVPMDDTHVMLFDITGGVDEGNPFFTTKLKNGEPMYEKIRRKPNGTGWYDRWLPVDGLQNDWGIDREAQRNMIHYTGIDNPSMQDQAITESMGPITDHSFEHLAPTDQMIAFVRRRLTQALRNFRDDSAPAPCAFSPETYFGARSGAFWADPVVEFSTAYRVELEKAQRWPANPDGSAVEREPEVAR	not soluble
MYATSTQKREWTYTPEKLAAMRLEINIKFRQKYESVMQPDELELFVTPEEELRMQRSIEDAALKFADKFRPHIWPSVKWTALAFFKRAFLVWVPSDTSIRMVMMACFYLAMKIDEFYITIEDFVKNMNVGEPRQNAERILKLEPELMKILDYNLTVHCPYRPYEGHLMDMKTRMLLLNFDLESIRRDSMRFFQNALQTDVLLLYPPSQIALAAINFGLHAQGKSDEILREFLRKLIGIEEDSWAHRDARPEDLEKLEKTVTRVNQIMREVDRNFVAVTEQERENHKSQLARIQALIPALDERRKEQWLAGGGVGLMPGELAEQPVDSDDEIN	not soluble
MGSDKIHHHHHHMADAATLKARVAQIFREAWTTREGQKVPDPGDVKLGNDAVEFEKATILYADLSGSTDLVNAHGWTFAAEIYKTYLHCAATIIRDEGGSIVSYDGDRVMGVFIGDPQTTPAARAGLKINYAVQEIINPALKAQYPSNTFVVRQVVGIDTSPIRAARTGVRGDNDLVWVGRAANYAAKLTELKLDERTWITKEAYDRLTDDAKFGGANRTLMWKFYRWSQMNDHPIYGSTWRWSL	not soluble
MAHHHHHHMVNLRLQVAVVGAPTVGKTAFVQMLHSNGTTFPKNYLMTLGCDFIVKEVPVDDDNTVEMIIFDVSGQREYEPMVSSYLQNTAVFIVMYDVSNKVTFEACARWVNQVRTNSKESVGILIANKSDLSDKAEVTDRQGKDLANANKMKFYKISTLRGVGITEPIDEIARHYVDAYQKRIEQLTQMR	not soluble
MSLSISFNNIPSALRVPLTYIEFDNTKAVSGPPTALHKVLMLGTKLATGSAKAGEAVRVSAYAQAKTLFGRGSQLAEMVKTFKAHNSTLDLWVLPLDEAPSGAKATGSVQITGTATQAGTFSLMIAGNNYKTAVTSGDTADVVAGKLQKLIAADQDVPVVATVAGNTITLTCRFKGETGNEIDLRCNYYSGEAFPEGLKATITDMKNGAVNPDMSVAITGLGAEWWNYIINPFTDTESLNLLRADLVKRWGPLKQIDGICFMAKRGTHAEVTTFAEQRNDYLFSLLATHKAPQPAYLWASAYAAVVAGSLAIDPARPVQTLVMDLLPPSMSDRWDLPERNTLLYSGVSTYTVNAGSQPQVEAAITMYRKNAFGDNDESYLYVETIATLSYLRYAIRSRITQKFPRHKLANDGTRIGPGQAIVTPKIIRNELLALFTELEFAGLVEDFEQFNQTLFVERDSNNPCRVNVLSNENLVNQFRIYAHAIQFILEGHHHHHH	soluble
MGSQAAHMMSMDFEDFPVESAHRILTPRPTVMVTTVDEEGNINAAPFSFTMPVSIDPPVVAFASAPDHHTARNIESTHEFVINITPADIIERMWVTARDIPAGENELEAAGLAWTSSRRVKPPRIVEAPGHLECELLRMFEVGDHNLITGSVVSASVRSGAVKEGLLDVESVKPVLHVGGNKFVVGD	not soluble
